# Reference: patent US20240301067A1 (WUXI BIOLOGICS IRELAND, published 2024)
# T1: Mouse PD-1 (soluble analyte in SPR, Table 11) (mouse, UniProt Q02242 25-167, limits assumed)
# T1 sequence (looked up): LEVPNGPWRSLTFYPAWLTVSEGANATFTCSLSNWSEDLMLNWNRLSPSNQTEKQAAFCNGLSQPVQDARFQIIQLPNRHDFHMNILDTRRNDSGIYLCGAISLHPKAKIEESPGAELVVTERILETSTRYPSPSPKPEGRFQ
# Tests used:
# [1] = target: T2, Human PD-1 extracellular domain, mFc tag (human, UniProt Q15116 25-170); experiment: ELISA competition on coated hPro1.ECD.mFc; competitor hPro1L2.ECD.His; experiment 1
# T2 construct: extracellular domain; also called hPro1.ECD.mFc; hPD-1.ECD.mFc; not shown: mouse Fc tag at C-terminus
# Method: Plates were pre-coated with 1 μg/mL, 100 μL per well of human PD-1 ECD (hPro1.ECD.mFc) at 4° C. overnight. After 1-hour blocking using 200 μL of 1×PBS/2% BSA, constant concentration of his tagged human PD-L2 ECD (hPro1L2.ECD.His) and various concentrations of testing antibodies (3-fold serially diluted from 66.7 nM to 0.003 nM) were pre-mixed and added to the plates. After 2-hour incubation at ambient temperature, the binding of the ligand to the immobilized protein was detected by HRP-labeled goat anti-His antibody. The color was developed by dispensing 100 μL of TMB substrate, and then stopped by 100 μL of 2N HCl. The absorbance was read at 450 nm and 540 nm using a microplate spectrophotometer.
# [2] = target: T3, Cynomolgus PD-1 extracellular domain, hFc tag (cynomolgus, UniProt B0LAJ3 25-170); experiment: ELISA competition on coated cynoPro1.ECD.hFc; competitor cynoProL1.ECD.hFc.biotin 2.5 µg/mL; experiment 1
# T3 construct: Bought; also called cynoPro1.ECD.hFc; cyno PD-1 ECD protein
# Method: Plates were pre-coated with 1 μg/mL, 100 μL per well of cyno PD-1 ECD protein (cynoPro1.ECD.hFc) at 4° C. overnight. After 1-hour blocking using 200 μL of 1×PBS/2% BSA, constant concentration of biotinylated cyno PD-L1 (cynoProL1.ECD.hFc.biotin) (2.5 μg/mL) and various concentrations of testing antibody, positive and negative control (3-fold serially diluted from 133.4 nM to 0.007 nM) were pre-mixed and added to the plates. The plates were incubated at ambient temperature for 1 hour. The binding of ligand to the immobilized protein was detected by streptavidin-HRP. The color was developed by dispensing 100 μL of TMB substrate, and then stopped by 100 μL of 2M HCl. The absorbance was read at 450 nm and 540 nm using a microplate spectrophotometer.
# [3] = target: Human PD-1 (soluble analyte in SPR, Table 11) (human, UniProt Q15116 25-167); experiment: SPR Biacore 8K; antibody captured on anti-human Fc chip, PD-1 injected; 1:1 fit
# Method: (§1) Antibody binding affinity to human, mouse and cynomolgus PD-1 was detected using Biacore 8K. W3056-AP17R1-2H2-Z1-R1-14A1-FC (IgG4.SP) was captured on an anti-human Fc IgG antibody immobilized CM5 sensor chip (GE). Human, mouse and cynomolgus PD-1 at different concentrations were injected over the sensor chip at a flow rate of 30 uL/min for an association phase of 120 s, followed by 150 s dissociation. The chip was then regenerated by 10 mM Glycine pH 1.5 after each binding cycle.
# (§2) The sensorgrams of blank surface and buffer channel were subtracted from the test sensorgrams. The experimental data was fitted by 1:1 model using Langmiur analysis. Molecular weight of 40, 45 and 40 kDa was used to calculate the molar concentration of analyte human, mouse and cynomolgus PD-1 respectively.
# [4] = target: T4, Cynomolgus PD-1 (soluble analyte in SPR, Table 11) (cynomolgus, UniProt B0LAJ3 25-170); experiment: as above
# T4 construct: also called cyno PD-1
# Method: as §1, §2
# [5] = target: T1, Mouse PD-1 (soluble analyte in SPR, …); experiment: as above
# Method: as §1, §2
# T4 sequence (B0LAJ3 entry or part of it limits assumed): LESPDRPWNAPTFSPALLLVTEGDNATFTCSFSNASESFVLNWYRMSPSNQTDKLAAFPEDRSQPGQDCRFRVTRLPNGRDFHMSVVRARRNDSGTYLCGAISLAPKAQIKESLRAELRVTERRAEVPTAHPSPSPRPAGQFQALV
# Sequence of Human PD-1 (soluble analyte in SPR, Table 11) (Q15116 25-167 limits assumed): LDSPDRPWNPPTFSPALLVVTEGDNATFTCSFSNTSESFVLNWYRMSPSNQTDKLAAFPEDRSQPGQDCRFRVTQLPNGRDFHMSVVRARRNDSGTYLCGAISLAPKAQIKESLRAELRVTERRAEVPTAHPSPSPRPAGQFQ
# T3 sequence (B0LAJ3 entry or part of it limits assumed): as the sequence (B0LAJ3 entry or part of it limits assumed) above
# T2 sequence (Q15116 25-170): as the sequence (B0LAJ3 entry or part of it limits assumed) above, with E2D, A10P, L19V, A35T, R75Q, A144T counted along it
IC50 [1] [nM],IC50 [2] [nM],Kd [3] [nM],koff [3] [s⁻¹],kon [3] [M⁻¹ s⁻¹],Kd [4] [nM],koff [4] [s⁻¹],kon [4] [M⁻¹ s⁻¹],Kd [5] [nM],koff [5] [s⁻¹],kon [5] [M⁻¹ s⁻¹],Binder
2.02,1.3,,,,,,,,,,"W3056-AP17R1-2H2-FC(IgG4.SP) (Fc fusion, VHH fused to Fc of human IgG4 S228P; also called W3056 lead parental antibody (VHH-Fc(hIgG4) fusion); not shown: Fc of human IgG4 (hIgG4.S228P)) QVQLVESGGGLVQPGGSLRLSCAASDSIDSLVNMGWYRQAPGKQRELVALIANYITHYADFVKGRFTISRDAAKNTVNLQMSSLKPEDTAVYYCYARNIIVDYWGQGTQVTVSS"
,,3.45,0.000857,248000,8.53,0.00177,208000,28.7,0.00422,147000,"W3056-AP17R1-2H2-Z1-R1-14A1-FC(IgG4.SP) (Fc fusion, also called W3056 lead antibody (VHH-Fc(hIgG4) fusion); not shown: Fc of human IgG4 (hIgG4.S228P)) QVQLVESGGGVVQPGGSLRLSCAASDSIDSLVNMGWYRQAPGKQRELVALIATYITHYADFVKGRFTISRDNSKNTLYLQMNSLRAEDTAVYYCYARNIIVDYWGQGTLVTVSS"
